Key:
[1] = target: T1, CD37 (Leukocyte Antigen CD37, Tetraspanin-26) on cells (human, UniProt P11049 1-281); assay: FACS, DOHH-2 cells (Follicular); ratio to isotype control
T1 construct: In the assays it is the endogenous CD37 of human cancer cell lines, of AML patient PBMC and of patient tumor sections, or CD37 on recombinant 293T cells; also called CD37 antigen; CD37 expressing cells
T1 sequence: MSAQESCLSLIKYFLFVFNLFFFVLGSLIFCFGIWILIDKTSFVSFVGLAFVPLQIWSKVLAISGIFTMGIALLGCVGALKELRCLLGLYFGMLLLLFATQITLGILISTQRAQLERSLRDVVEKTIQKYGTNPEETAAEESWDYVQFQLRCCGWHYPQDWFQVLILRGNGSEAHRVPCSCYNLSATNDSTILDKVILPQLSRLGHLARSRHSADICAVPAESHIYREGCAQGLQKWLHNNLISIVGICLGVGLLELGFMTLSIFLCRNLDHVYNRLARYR
Text: (§1) To express HvCD37-6b15.1.1 MAb recombinantly in transfected cells, HvCD37-6b15.1.1 MAb variable heavy and light chain sequences were cloned upstream of the human heavy chain IgG2 and human light chain Igκ constant regions respectively. The complete HvCD37-6b15.1.1 MAb human heavy chain and light chain cassettes were cloned downstream of the CMV promoter/enhancer in a cloning vector. A polyadenylation site was included downstream of the MAb coding sequence. The recombinant HvCD37-6b15.1.1 MAb expressing construct was transfected into CHO cells. The HvCD37-6b15.1.1 MAb secreted from recombinant cells was evaluated for binding to human cancer cell lines expressing CD37 by FACS (See, Table VI). Binding was detected by flow cytometry.
(§2) HvCD37-6b15.1.1 was tested for binding to different NHL, CLL and AML cell lines (See, Table VI) grown in-vitro. HvCD37-6b15.1.1 and an Isotype matched control antibody were biotinylated using NHS LC biotin. In vitro cancer lines growing exponentially were used for all experiments. […] After washing un-bound secondary antibody, cells were analyzed by FACS, a total of 10,000 events were collected per sample. Data files were analyzed using FlowJo and Geometric Mean Fluorescence was determined and reported. Fluorescense ratio was calculated as follows: Geo mean AGS67C/Geo Mean Isotype control=MFR, a measure of fold expression above Isotype control.

[2] = target: T1, CD37 (Leukocyte Antigen CD37, …); assay: FACS, Kasumi-1 cells (AML); ratio to isotype control
Text: as §1, §2

[3] = target: T1, CD37 (Leukocyte Antigen CD37, …); assay: FACS, WSU-DLCL-2 cells (DLBCL); ratio to isotype control
Text: as §1, §2

[4] = target: T1, CD37 (Leukocyte Antigen CD37, …); assay: FACS, Mino cells (MCL); ratio to isotype control
Procedure: (§3) HvCD37-6b15.1.1 was tested for binding to different NHL, CLL and AML cell lines (See, Table VI) grown in-vitro. HvCD37-6b15.1.1 and an Isotype matched control antibody were biotinylated using NHS LC biotin. In vitro cancer lines growing exponentially were used for all experiments. Briefly, cells were harvested by and washed by centrifugation. Antibodies were diluted to 5 μg/mL final concentration and co-incubated with cells at 4° C. for 1 hour. At the end of the incubation, cells were washed and incubated with secondary detection Streptavidin-PE antibody at a final 1:400 (1.25 μg/mL) dilution for 1 hr at 4° C. After washing un-bound secondary antibody, cells were analyzed by FACS, a total of 10,000 events were collected per sample. Data files were analyzed using FlowJo and Geometric Mean Fluorescence was determined and reported. Fluorescense ratio was calculated as follows: Geo mean AGS67C/Geo Mean Isotype control=MFR, a measure of fold expression above Isotype control.

[5] = target: T1, CD37 (Leukocyte Antigen CD37, …); assay: FACS, JVM-3 cells (CLL); ratio to isotype control
Procedure: as §3

[6] = target: T1, CD37 (Leukocyte Antigen CD37, …); assay: FACS, KG-1 cells (AML); ratio to secondary detection (high isotype background)
Text: as §1
as §3, with “At the end of the incubation, cells were washed and incubated with secondary detection Streptavidin-PE antibody at a final 1:400 (1.25 μg/mL) dilution for 1 hr at 4° C.” left out, “Fluorescense ratio was calculated as follows: Geo mean AGS67C/Geo Mean Isotype control=MFR, a measure of fold expression above Isotype control.” left out

[7] = target: T1, CD37 (Leukocyte Antigen CD37, …); assay: FACS, Raji cells (Burkitt's); ratio to isotype control
Procedure: as §3

[8] = target: T1, CD37 (Leukocyte Antigen CD37, …); assay: FACS, EoL-1 cells (AML); ratio to isotype control
Procedure: as §3

[9] = target: T1, CD37 (Leukocyte Antigen CD37, …); assay: FACS, Daudi cells (Burkitt's); ratio to isotype control
Text: as §1, §2

[10] = target: T1, CD37 (Leukocyte Antigen CD37, …); assay: FACS, Ramos RR XCL cells (Burkitt's, rituxan resistant); ratio to isotype control
Procedure: as §3

[11] = target: T1, CD37 (Leukocyte Antigen CD37, …); assay: FACS, MOLT-4 cells (ALL); ratio to isotype control
Procedure: as §3

[12] = target: T1, CD37 (Leukocyte Antigen CD37, …); assay: FACS, Hel 92.1 cells (AML); ratio to secondary detection (high isotype background)
Procedure: as §3, with “Fluorescense ratio was calculated as follows: Geo mean AGS67C/Geo Mean Isotype control=MFR, a measure of fold expression above Isotype control.” left out

[13] = target: T1, CD37 (Leukocyte Antigen CD37, …); assay: FACS, REC-1 cells (MCL); ratio to isotype control
Text: as §1, §2

[14] = target: T1, CD37 (Leukocyte Antigen CD37, …); assay: FACS, MOLM-13 cells (AML); ratio to isotype control
Procedure: as §3

[15] = target: T1, CD37 (Leukocyte Antigen CD37, …); assay: FACS, Granta-519 cells (MCL); ratio to secondary detection (high isotype background)
Text: as §1
as §3, with “At the end of the incubation, cells were washed and incubated with secondary detection Streptavidin-PE antibody at a final 1:400 (1.25 μg/mL) dilution for 1 hr at 4° C.” left out, “Fluorescense ratio was calculated as follows: Geo mean AGS67C/Geo Mean Isotype control=MFR, a measure of fold expression above Isotype control.” left out

[16] = target: T1, CD37 (Leukocyte Antigen CD37, …); assay: FACS, MV-4-11 cells (AML); ratio to isotype control
Procedure: as §3

[17] = target: T1, CD37 (Leukocyte Antigen CD37, …); assay: FACS, Mino XCL cells (MCL, in-vivo xenograft); ratio to isotype control
[18] = target: T1, CD37 (Leukocyte Antigen CD37, …); assay: FACS, HL-60 cells (AML); ratio to isotype control
Text: as §1, §2

[19] = target: T1, CD37 (Leukocyte Antigen CD37, …); assay: FACS, THP-1 cells (AML); ratio to isotype control
Text: as §1, §2

[20] = target: T1, CD37 (Leukocyte Antigen CD37, …); assay: FACS, Ramos cells (Burkitt's); ratio to isotype control
Text: as §1, §2

[21] = target: T1, CD37 (Leukocyte Antigen CD37, …); assay: FACS, BDCM cells (AML); ratio to isotype control
Procedure: as §3

[22] = target: T1, CD37 (Leukocyte Antigen CD37, …); assay: FACS, RS4-11 cells (ALL); ratio to isotype control
Text: as §1, §2

[23] = target: T1, CD37 (Leukocyte Antigen CD37, …); assay: FACS, SU-DHL-4 cells (DLBCL); ratio to isotype control
Procedure: as §3

[24] = target: T1, CD37 (Leukocyte Antigen CD37, …); assay: FACS on cells expressing CD37

B1: HvCD37-6b15.1.1 MAb (recombinant, expressed in CHO cells, human IgG2 / kappa) (antibody, V domains shown)
VH: QVQLQQWGAGLLKPSETLSLTCAVYGGSFSPYYWSWIRQPPGKGLEWIGEINHSGSTNYNPSLKSRVTISVDTSKNQFSLKLSSVTAADTAVYYCARRAGDFDYWGQGTLVTVSS
VL: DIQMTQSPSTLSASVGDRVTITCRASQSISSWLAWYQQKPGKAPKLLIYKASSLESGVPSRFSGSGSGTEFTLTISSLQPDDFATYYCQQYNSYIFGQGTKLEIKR
modifications: typical heavy chain of purified CHO material: N-terminal glutamine modified to pyroglutamate and C-terminal lysine deleted; biotinylated with NHS LC biotin for the FACS assays
notes: Fully human antibody: human variable regions on human IgG2 and human kappa constant regions, made in CHO cells (ATCC PTA-120464); also called HvCD37-6b15.1.1 IgG2; AGS67C
- MFR (Mean Florescence ratio) [1]: 581
- MFR (Mean Florescence ratio) [2]: 9
- MFR (Mean Florescence ratio) [3]: 554
- MFR (Mean Florescence ratio) [4]: 301
- MFR (Mean Florescence ratio) [5]: 122
- MFR (Mean Florescence ratio) [6]: 10
- MFR (Mean Florescence ratio) [7]: 135
- MFR (Mean Florescence ratio) [8]: 3
- MFR (Mean Florescence ratio) [9]: 39
- MFR (Mean Florescence ratio) [10]: 140
- MFR (Mean Florescence ratio) [11]: 3
- MFR (Mean Florescence ratio) [12]: 28
- MFR (Mean Florescence ratio) [13]: 341
- MFR (Mean Florescence ratio) [14]: 6
- MFR (Mean Florescence ratio) [15]: 372
- MFR (Mean Florescence ratio) [16]: 8
- MFR (Mean Florescence ratio) [17]: 316
- MFR (Mean Florescence ratio) [18]: 5
- MFR (Mean Florescence ratio) [19]: 23
- MFR (Mean Florescence ratio) [20]: 534
- MFR (Mean Florescence ratio) [21]: 64
- MFR (Mean Florescence ratio) [22]: 26
- MFR (Mean Florescence ratio) [23]: 662

B2: HvCD37-6b15.1.1 MAb purified from hybridoma (VelocImmune mouse) (antibody, V domains shown)
VH: B1 VH
VL: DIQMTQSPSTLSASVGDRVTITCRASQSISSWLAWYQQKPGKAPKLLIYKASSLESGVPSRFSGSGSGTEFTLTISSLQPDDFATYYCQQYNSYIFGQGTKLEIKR
notes: also called HvCD37-6b15.1.1 purified from hybridoma; MAb material derived from hybridoma cells
- binding result [24]: binds

From patent publication US20160051694A1 (AGENSYS, published 2016)
